The Kd is the equilibrium constant for the complex coming apart.

These results are taken from patent publication US20220185898A1 (Alector, published 2022).

Test [1] deals with T1, biotinylated mouse Sortilin monomer (mouse, UniProt Q6PHU5 74-754, limits assumed, biotinylated).
T1 construct: also called Bt-msSort
Briefly: MSD-SET, Fab.
Description: Antibodies (20 nM in PBS) were coated onto standard bind MSD-ECL plates overnight at 4° C. or at room temperature for 30 min. Plates were then blocked with 1% BSA for 30 min with shaking at 700 rpm, followed by three washes with wash buffer (PB SF+0.05% Tween 20). SET samples were applied and incubated on the plates for 150 s with shaking at 700 rpm followed by one wash. Antigen captured on a plate was detected with 250 ng/ml sulfotag-labeled streptavidin in PBSF by incubation on the plate for 3 min. The plates were washed three times with wash buffer and then read on the MSD Sector Imager 2400 instrument using 1× Read Buffer T with surfactant. The percent free antigen was plotted as a function of titrated antibody in Prism and fit to a quadratic equation to extract the KD. To improve throughput, liquid handling robots were used throughout MSD-SET experiments, including SET sample preparation.

Test [2] deals with T2, mouse Sortilin expressed on 293 / HEK293T cells (mouse, UniProt Q6PHU5 74-825).
T2 construct: full-length recombinant mouse Sortilin; also called mSort; msSort
Briefly: FACS, HEK293T + msSort.
Description: Antibodies were diluted in FACS buffer (PBS+2% FBS+0.01% NaAzide). After incubation on ice for 1 h, cells were washed three times in FACS buffer and incubated with anti-human PE conjugated secondary antibody (BD Biosciences, 1:100 dilution) for 30 min on ice. Then cells were washed twice in 200 ul FACS buffer, and subsequently analyzed on a FACS Canto or iQE FACS screening instrument (Intellicyt Corp).

For test [3], the target named is T3, human Sortilin expressed on 293 / HEK293T cells (human, UniProt Q99523 78-830).
T3 construct: full-length recombinant human Sortilin; also called hSort; SORT1
Briefly: FACS, 293 cells.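 Note: antibodies at 10 µg/ml bound to cells for 1 h on ice, detected with PE-labelled anti-human secondary antibody by flow cytometry, reported as mean fluorescence intensity.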 In general terms: A flow cytometer gives signals particle by particle.

The target of test [4] is T2, mouse Sortilin expressed on 293 / …. Briefly: FACS, 293 cells.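 Note: antibodies at 10 µg/ml bound to cells for 1 h on ice, detected with PE-labelled anti-human secondary antibody by flow cytometry, reported as mean fluorescence intensity.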
Test [5] deals with T4, mouse Sortilin Fc fusion protein (mouse; human, UniProt Q6PHU5 74-754).
T4 construct: whole entry named; also called mSort-Fc
Description: ForteBio, avid.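 Note: whole IgG captured on AHQ sensors, then contacted with Sortilin Fc fusion antigen at 100 nM, followed by an off-rate phase in buffer.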

For test [6], the target named is T5, human Sortilin Fc fusion protein (human, UniProt Q99523 78-755).
T5 construct: whole entry named; also called hSort-Fc
Description: ForteBio, avid.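 Note: whole IgG captured on AHQ sensors, then contacted with Sortilin Fc fusion antigen at 100 nM, followed by an off-rate phase in buffer.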 A general note: BLI is a label-free optical method that tracks binding on a fibre tip over time.

B1: S-82-3 Fab (Fab, V domains shown)
VH: QLQLQESGPGLVKPSETLSLTCTVSGGSISSSDYYWGWIRQPPGKGLEWIGQIYYKGSTYYNPSLKSRVTISVDTSKNQFSLKLSSVTAADTAVYYCARGVGSGYSYGYRYFDYWGQGTLVTVSS
VL: EIVLTQSPGTLSLSPGERATLSCRASQSVSSSYLAWYQQKPGQAPRLLIYGASSRATGIPDRFSGSGSGTDFTLTISRLEPEDFAVYYCQQSHVSPWTFGGGTKVEIK
notes: Fab by papain digestion
For the molecule B1, in test [1], the binding result is recorded as “no binding”.

B2: S-82-5 Fab (Fab, V domains shown)
VH: QLQLQESGPGLVKPSETLSLTCTVSGGSIKSSEYYWGWIRQPPGKGLEWIGSIYRAGSTYYNPSLKSRVTISVDTSKNQFSLKLSSVTAADTAVYYCARGVGSGYSYGYRYFDYWGQGTLVTVSS
VL: EIVLTQSPGTLSLSPGERATLSCRASQSVSSSYLAWYQQKPGQAPRLLIYGASSRATGIPDRFSGSGSGTDFTLTISRLEPEDFAVYYCQQSHVSPWTFGGGTKVEIK
notes: Fab by papain digestion
B2: in test [1], the binding result was “no binding”.

B3: S-82-5 (antibody, V domains shown)
VH: QLQLQESGPGLVKPSETLSLTCTVSGGSIKSSEYYWGWIRQPPGKGLEWIGSIYRAGSTYYNPSLKSRVTISVDTSKNQFSLKLSSVTAADTAVYYCARGVGSGYSYGYRYFDYWGQGTLVTVSS
VL: EIVLTQSPGTLSLSPGERATLSCRASQSVSSSYLAWYQQKPGQAPRLLIYGASSRATGIPDRFSGSGSGTDFTLTISRLEPEDFAVYYCQQSHVSPWTFGGGTKVEIK
notes: IgG
For the molecule B3, the binding result in test [2] is “no binding (tested: 0.39-50 nM antibody)”.

B4: S-82-3 (antibody, V domains shown)
VH: QLQLQESGPGLVKPSETLSLTCTVSGGSISSSDYYWGWIRQPPGKGLEWIGQIYYKGSTYYNPSLKSRVTISVDTSKNQFSLKLSSVTAADTAVYYCARGVGSGYSYGYRYFDYWGQGTLVTVSS
VL: EIVLTQSPGTLSLSPGERATLSCRASQSVSSSYLAWYQQKPGQAPRLLIYGASSRATGIPDRFSGSGSGTDFTLTISRLEPEDFAVYYCQQSHVSPWTFGGGTKVEIK
notes: IgG
Regarding B4, the binding result in test [2] is listed as “no binding (tested: 0.39-50 nM antibody)”.

B5: S-28 (antibody, V domains shown)
VH: EVQLVESGGGLVKPGGSLRLSCAASGFTFSSYSMNWVRQAPGKGLEWVSSISSSSNYIYYADSVKGRFTISRDNAKNSLYLQMNSLRAEDTAVYYCARGGLDRWGSFDIWGQGTMVTVSS
VL: not shown
notes: IgG
On to B5, for which the MFI worked out at 8560 in test [3] and 21600 in test [4]. Moreover, the Kd is 1.25 nM in test [5] and 0.299 nM in test [6].

B6: S-29 (antibody, V domains shown)
VH: EVQLVESGGGLVKPGGSLRLSCAASGFTFSSYSMNWVRQAPGKGLEWVSSISSSSNYIYYADSVKGRFTISRDNAKNSLYLQMNSLRAEDTAVYYCARGGLDRWGSFDIWGQGTMVTVSS
VL: not shown
notes: IgG
With B6, the MFI stood at 9600 in test [3] and 21800 in test [4]. The Kd was 1.37 nM in test [5] and 0.37 nM in test [6].

B7: S-78 (antibody, V domains shown)
VH: QLQLQESGPGLVKPSETLSLTCTVSGGSISSSDYYWGWIRQPPGKGLEWIGSIYYSGSTYYNPSLKSRVTISVDTSKNQFSLKLSSVTAADTAVYYCARSLAMSGAYFDLWGRGTLVTVSS
VL: not shown
notes: IgG
As to B7, the MFI was 7120 in test [3] and 7930 in test [4]. Also, the Kd in test [5] turned out to be 10.6 nM; in test [6], 3.51 nM.

B8: S-73 (antibody, V domains shown)
VH: QVQLQESGPGLVKPSQTLSLTCTVSGGSISSGTYYWSWIRQHPGKGLEWIGYIYYSGSTYYNPSLKSRVTISVDTSKNQFSLKLSSVTAADTAVYYCARGVGRYRVADYWGQGTLVTVSS
VL: EIVLTQSPATLSLSPGERATLSCRASQSVSSYLAWYQQKPGQAPRLLIYDASNRATGIPARFSGSGSGTDFTLTISSLEPEDFAVYYCQQASVYPPITFGGGTKVEIK
notes: IgG
As for B8, the MFI in test [3] worked out at 8070; in test [4], 7670. Also, the Kd in test [5] worked out at 19.7 nM; in test [6] it was 3.33 nM.

B9: S-18 (antibody, V domains shown)
VH: QVQLVQSGAEVKKPGSSVKVSCKASGGTFSSYAISWVRQAPGQGLEWMGSIIPIFGTANYAQKFQGRVTITADESTSTAYMELSSLRSEDTAVYYCARDKHGRRGYYYYMDVWGKGTTVTVSS
VL: EIVLTQSPATLSLSPGERATLSCRASQSVSSYLAWYQQKPGQAPRLLIYDASNRATGIPARFSGSGSGTDFTLTISSLEPEDFAVYYCQQGANAPPRTFGGGTKVEIK
notes: IgG
Regarding B9, the MFI in test [3] was found to be 9350; in test [4], 21700. The Kd in test [5] amounted to 2.3 nM; in test [6] it was 0.475 nM.

B10: S-69 (antibody, V domains shown)
VH: QVQLQESGPGLVKPSQTLSLTCTVSGGSISSGGYYWSWIRQHPGKGLEWIGYIYYSGSTYYNPSLKSRVTISVDTSKNQFSLKLSSVTAADTAVYYCARDRGGTHFGADHYYYGMDVWGQGTMVTVSS
VL: EIVMTQSPATLSVSPGERATLSCRASQSVSSSLAWYQQKPGQAPRLLIYGASTRATGIPARFSGSGSGTEFTLTISSLQSEDFAVYYCQQAADWPITFGGGTKVEIK
notes: IgG
For B10, the figures for the MFI in test [3] and in test [4] were 8580 and 1890, respectively. Also, the figures for the Kd in test [5] and in test [6] were 20.1 nM and 4.29 nM, respectively.

B11: S-48 (antibody, V domains shown)
VH: QVQLVESGGGVVQPGRSLRLSCAASGFTFSSYGMHWVRQAPGKGLEWVAVISYDGSNKYYADSVKGRFTISRDNSKNTLYLQMNSLRAEDTAVYYCARESGDRATLVYYYYYGMDVWGQGTTVTVSS
VL: EIVMTQSPATLSVSPGERATLSCRASQSVSSNLAWYQQKPGQAPRLLIYSASTRATGIPARFSGSGSGTEFTLTISSLQSEDFAVYYCQQYNSWPITFGGGTKVEIK
notes: IgG
On to B11, for which the MFI in test [3] was found to be 8140; in test [4], 11900. Besides, the results for the Kd in test [5] and in test [6] were 1.53 nM and 4.96 nM, respectively.

B12: S-4 (antibody, V domains shown)
VH: not shown
VL: EIVMTQSPATLSVSPGERATLSCRASQSVSSNLAWYQQKPGQAPRLLIYGASTRATGIPARFSGSGSGTEFTLTISSLQSEDFAVYYCQQFRVLPPTFGGGTKVEIK
notes: IgG
Regarding B12, the figures for the MFI in test [3] and in test [4] were 9120 and 15700, respectively. In addition, the Kd in test [5] came out at 1.55 nM; in test [6] it was 4.5 nM.

B13: S-9 (antibody, V domains shown)
VH: QVQLVQSGAEVKKPGASVKVSCKASGYTFTSYGISWVRQAPGQGLEWMGWISAYNGNTNYAQKLQGRVTMTTDTSTSTAYMELRSLRSDDTAVYYCARDPGGYGPTLYYYYGMDVWGQGTTVTVSS
VL: EIVMTQSPATLSVSPGERATLSCRASQSVSSNLAWYQQKPGQAPRLLIYGASTRATGIPARFSGSGSGTEFTLTISSLQSEDFAVYYCQQYNIYPLTFGGGTKVEIK
notes: IgG
With B13, the MFI in test [3] was 10300; in test [4] it was 22200. The Kd is 2.16 nM in test [5] and 6.98 nM in test [6].

B14: S-15-6 (antibody, V domains shown)
VH: QVQLVQSGAEVKKPGASVKVSCKASGYTFTSRYMSWVRQAPGQGLEWMGIINPVGGSTSYAQKFQGRVTMTRDTSTSTVYMELSSLRSEDTAVYYCARDPSGIAAAGPASRYYYGMDVWGQGTTVTVSS
VL: EIVMTQSPATLSVSPGERATLSCRASQSVSSNLAWYQQKPGQAPRLLIYGASTRATGIPARFSGSGSGTEFTLTISSLQSEDFAVYYCQQARLGPWTFGGGTKVEIK
notes: IgG
Take B14: in test [2], the Kd was 18.9 nM.

B15: S-2-2 (antibody, V domains shown)
VH: QVQLVQSGAEVKKPGASVKVSCKASGYTFVAYYMHWVRQAPGQGLEWMGWINPNSGATRYAQKFQGRVTMTRDTSISTAYMELSRLRSDDTAVYYCARGKRSSGWYEGYGMDVWGQGTTVTVSS
VL: DIQMTQSPSSLSASVGDRVTITCRASQSISSYLNWYQQKPGKAPKLLIYAASSLQSGVPSRFSGSGSGTDFTLTISSLQPEDFATYYCQQSDVSPITFGGGTKVEIK
notes: IgG
As to B15, the Kd in test [2] is 2.27 nM.

B16: S-19 (antibody, V domains shown)
VH: QVQLVQSGAEVKKPGSSVKVSCKASGGTFSSYAISWVRQAPGQGLEWMGGIIPIFGTASYAQKFQGRVTITADESTSTAYMELSSLRSEDTAVYYCARESRIPGSGYYYYYGMDVWGQGTTVTVSS
VL: DIQMTQSPSSLSASVGDRVTITCRASQSISSYLNWYQQKPGKAPKLLIYSASSLQSGVPSRFSGSGSGTDFTLTISSLQPEDFATYYCQQTDGKPPTFGGGTKVEIK
notes: IgG
Take B16: the MFI came out at 11700 in test [3] and 28200 in test [4]. The Kd in test [5] was determined as 0.733 nM; in test [6], 0.843 nM.

B17: S-21 (antibody, V domains shown)
VH: QVQLVQSGAEVKKPGSSVKVSCKASGGTFSSYAISWVRQAPGQGLEWMGSIIPIFGTANYAQKFQGRVTITADESTSTAYMELSSLRSEDTAVYYCARERRYDGYYYYYGMDVWGQGTTVTVSS
VL: DIQMTQSPSSLSASVGDRVTITCRASQSISSYLNWYQQKPGKAPKLLIYAASSLQSGVPSRFSGSGSGTDFTLTISSLQPEDFATYYCQQKASLPFTFGGGTKVEIK
notes: IgG
For the molecule B17, the MFI in test [3] amounted to 9380; in test [4] it was 22900. Besides, the Kd in test [5] was determined as 2.8 nM; in test [6] it was 1.87 nM.

B18: S-10 (antibody, V domains shown)
VH: QVQLVQSGAEVKKPGASVKVSCKASGYTFTSYGISWVRQAPGQGLEWMGWISAYNGNTNYAQKLQGRVTMTTDTSTSTAYMELRSLRSDDTAVYYCARDPGGYGPTLYYYYGMDVWGQGTTVTVSS
VL: EIVMTQSPATLSVSPGERATLSCRASQSVSSNLAWYQQKPGQAPRLLIYGASTRATGIPARFSGSGSGTEFTLTISSLQSEDFAVYYCQQYADWPPITFGGGTKVEIK
notes: IgG
Turning to B18, the figures for the MFI in test [3] and in test [4] were 8660 and 19400, respectively. In addition, the Kd in test [5] was determined as 2.29 nM; in test [6], 11 nM.
